From doi:10.1101/2025.08.28.672883 (bioRxiv, 2025)

Experiments:
Conditions in all cases: both partners purified
[1] = target: SARS-CoV-2 Omicron BA.1 spike receptor-binding domain (SARS-CoV-2 Omicron BA.1, S371L | S373P | S375F | Q493R | Q498R | N501Y | Y505H); assay: BLI; Octet Red; […] (20 ug/ml) […]; kinetics buffer 1x PBS pH 7.4, 0.01% BSA, 0.002% Tween 20; 1:1 binding model
[2] = target: SARS-CoV-2 Omicron BA.5 spike receptor-binding domain (SARS-CoV-2 Omicron BA.5, S375F | D405N | N501Y | Y505H); assay: crystal structure
[3] = target: SARS-CoV-2 Omicron JN.1 spike receptor-binding domain (SARS-CoV-2 Omicron JN.1, strain); assay: BLI; Octet Red; […] (20 ug/ml) […]; kinetics buffer 1x PBS pH 7.4, 0.01% BSA, 0.002% Tween 20; 1:1 binding model
[4] = target: SARS-CoV-2 Omicron BQ.1.1 spike receptor-binding domain (SARS-CoV-2 Omicron BQ.1.1, strain); assay: as above
[5] = target: SARS-CoV-2 Omicron XBB.1.5 spike receptor-binding domain (SARS-CoV-2 Omicron XBB.1.5, strain); assay: as above

Measured: binding result

B1: ADI-77310 Fab (Fab, V domains shown)
VH: EVQLVESGGGLVKPGGSLRLSCAASGFTFGSYYMNWVRQAPGKGLEWVSSISEDGYSTYYPDSLKGRFTISRDSAKNSLYLQMNSLRADDTAVYYCARDFGGHTAWAGTGFTYWGQGTLVTVSS
VL: QSVLTQPPSVSGAPGQRITISCTGSSSNIGAGYDVHWYQQLPGTAPKLLIYGSSSRNSGVPDRFSGSKSGTSASLAITGLQAEDEADYYCQSYDSDLSVLYTFGTGTKVTVL
binds: [1]

B2: VYD222 Fab (Fab, V domains shown)
VH: EVQLVESGGGLVKPGGSLRLSCAASGFTFGSYEMNWVRQAPGKGLEWVSSISEDGYSTYYPDSLKGRFTISRDSAKNSLYLQMNSLRADDTAVYYCARDFGGDTAWAGTGFTYWGQGTLVTVSS
VL: QSVLTQPPSVSGAPGQRITISCTGSSSNIGAGYDVHWYQQLPGTAPKLLIYGSSSRNYGVPDRFSGSKSGTSASLAITGLQAEDEADYYCQSYDSDLGVLYTFGTGTKVTVL
binds: all assays above
